Reference: patent US20240181050A1 (COMPASS THERAPEUTICS, published 2024)

Legend:
Test in all cases: soluble point mutant tested for binding to mAb1; method not named
[1] = biological target: T1, human CD137 point mutant K114R, soluble protein (human, UniProt Q07011 24-186)
T1 construct: Printed as 'All 4 mutations tested at K114 (R, E, N, T)'; It was isolated from the extracellular-domain library and expressed as a soluble protein

[2] = biological target: T2, human CD137 point mutant K114E, soluble protein (human, UniProt Q07011 24-186)
T2 construct: Printed as 'All 4 mutations tested at K114 (R, E, N, T)'; It was expressed as a soluble protein
T2 sequence (Q07011 24-186 K114E limits assumed): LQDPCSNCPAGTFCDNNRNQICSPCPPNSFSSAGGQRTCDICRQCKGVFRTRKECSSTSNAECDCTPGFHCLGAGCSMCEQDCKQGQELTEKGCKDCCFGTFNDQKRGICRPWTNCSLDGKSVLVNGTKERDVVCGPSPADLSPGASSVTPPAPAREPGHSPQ

[3] = biological target: T3, human CD137 point mutant K114N, soluble protein (human, UniProt Q07011 24-186)
T3 construct: Printed as 'All 4 mutations tested at K114 (R, E, N, T)'; It was expressed as a soluble protein
T3 sequence (Q07011 24-186 K114N limits assumed): as the sequence (Q07011 24-186 K114E limits assumed) above, with E91N counted along it

[4] = biological target: T4, human CD137 point mutant K114T, soluble protein (human, UniProt Q07011 24-186)
T4 construct: Printed as 'All 4 mutations tested at K114 (R, E, N, T)'; It was expressed as a soluble protein
T4 sequence (Q07011 24-186 K114T limits assumed): as the sequence (Q07011 24-186 K114E limits assumed) above, with E91T counted along it

Measured: binding result

T1 sequence (Q07011 24-186 K114R limits assumed): as the sequence (Q07011 24-186 K114E limits assumed) above, with E91R counted along it

B1: anti-CD137 mAb1 (antibody, human IgG4 S228P, kappa, V domains shown)
VH: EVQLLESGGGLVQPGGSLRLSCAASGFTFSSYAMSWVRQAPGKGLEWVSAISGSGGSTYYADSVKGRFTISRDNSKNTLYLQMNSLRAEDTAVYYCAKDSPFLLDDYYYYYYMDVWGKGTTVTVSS
VL: DIQMTQSPSSVSASVGDRVTITCRASQGISSWLAWYQQKPGKAPKLLIYAASSLQSGVPSRFSGSGSGTDFTLTISSLQPEDFATYYCQQGHLFPITFGGGTKVEIKR
notes: also called parental mAb1
no binding: all assays above
